From patent US20220098306A1 (Xencor, published 2022) come the findings set out here.

In test [1] the target is T1, mouse Fc fusion of B7H3, full extracellular V1C1-V2C2 domain (human, UniProt Q5ZPR3 29-466).
T1 construct: extracellular domain; Fusions of the single V1C1 and V2C2 domains were tested as well; also called B7H3 antigen; printed 'V1C1-V2V2'; not shown: mouse Fc
T1 sequence (looked up): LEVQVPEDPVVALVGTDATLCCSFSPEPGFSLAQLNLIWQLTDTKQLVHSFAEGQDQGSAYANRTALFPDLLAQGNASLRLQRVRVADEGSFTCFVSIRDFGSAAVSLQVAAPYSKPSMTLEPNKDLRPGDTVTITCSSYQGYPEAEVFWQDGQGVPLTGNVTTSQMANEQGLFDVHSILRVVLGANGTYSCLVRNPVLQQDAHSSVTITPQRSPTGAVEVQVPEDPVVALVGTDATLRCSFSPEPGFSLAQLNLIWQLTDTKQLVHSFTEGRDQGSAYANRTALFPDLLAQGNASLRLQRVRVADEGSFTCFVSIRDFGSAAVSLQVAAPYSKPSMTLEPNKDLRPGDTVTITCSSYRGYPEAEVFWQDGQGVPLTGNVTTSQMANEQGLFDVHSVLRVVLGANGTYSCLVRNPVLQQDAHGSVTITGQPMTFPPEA
Nature of the test: Octet (BLI), B7H3 mouse Fc fusions on anti-mouse Fc biosensors, 1:1 Langmuir fit. The text has this:
(§1) To investigate whether the difference observed for XENP34339 resulted from the difference in B7H3 binding domain or the difference in bispecific antibody format, the component binding domains of XENP34339 and XENP34389 were biophysically characterized using Octet. […] Anti-mouse Fc biosensors were used to capture mouse Fc fusions of B7H3, either the full extracellular V1C1-[…] domain or the individual V1C1 or V2C2 domains, and dipped into multiple concentrations of XENP34717 or XENP34728. Kinetic analyses were performed by global fitting of binding data with a 1:1 Langmuir binding model. […] Next, the binding affinities of the CD28 binding domains for CD28 antigen in the 2+1 CLC format and the 2+1 Fab2-scFv-Fc format was investigated. Anti-HIS capture (HIS1K) biosensors were used to capture CD28-Fc-His protein and dipped into multiple concentrations of XENP34339 or XENP34389. Kinetic analyses were performed by global fitting of binding data with a 1:1 Langmuir binding model as well as steady state model. The resulting dissociation constant (KD) are depicted in FIG. 53.
Background: Biolayer interferometry detects binding as a change in optical thickness at a sensor tip.

In test [2] the target is T2, B7H3 (antigen of the affinity statements) (human, UniProt Q5ZPR3 29-466, limits assumed).
T2 construct: also called CD276
T2 sequence (looked up): T1 sequence (looked up)
As to the kind of experiment: monovalent affinity in 1+1 bsAb format (Example 2B).

For the next test, the target named is T3, CD28-Fc-His protein (human, UniProt P10747 19-152).
T3 construct: Captured on anti-HIS (HIS1K) biosensors; also called CD28 antigen; not shown: Fc; His tag
As to the kind of experiment: Octet (BLI), CD28-Fc-His on HIS1K biosensors, 1:1 Langmuir and steady state fits.
Source text: as §1

Positions count from the first letter of the chain named.

B1: XENP34717 (bispecific antibody)
heavy 1: EVQLLESGGGLVQPGGSLRLSCAASGFTFSSYYMSWVRQAPGKGLEWVSTISESGDSTYYADSVKGRFTISRDNSKNTLYLQMNSLRAEDTAVYYCAKSGPGLRQVGFDYWGQGTLVTVSSASTKGPSVFPLAPSSKSTSGGTAALGCLVKDYFPEPVTVSWNSGALTSGVHTFPAVLQSSGLYSLSSVVTVPSSSLGTQTYICNVNHKPSDTKVDKKVEPKSCDKTHTCPPCPAPPVAGPSVFLFPPKPKDTLMISRTPEVTCVVVDVKHEDPEVKFNWYVDGVEVHNAKTKPREEEYNSTYRVVSVLTVLHQDWLNGKEYKCKVSNKALPAPIEKTISKAKGQPREPQVYTLPPSREEMTKNQVSLTCDVSGFYPSDIAVEWESDGQPENNYKTTPPVLDSDGSFFLYSKLTVDKSRWEQGDVFSCSVMHEALHNHYTQKSLSLSPGK
heavy 2: QVQLVQSGAEVKKPGASVKVSCKASGYIFTNNYMHWVRQAPGQGLEWMGIISPSVGRTAYAQKFQGRVTMTRDTSTSTVYMELSSLRSEDTAVYYCARGGGSSPRLDYWGQGTLVTVSSASTKGPSVFPLAPSSKSTSGGTAALGCLVKDYFPEPVTVSWNSGALTSGVHTFPAVLQSSGLYSLSSVVTVPSSSLGTQTYICNVNHKPSNTKVDKKVEPKSCDKTHTCPPCPAPPVAGPSVFLFPPKPKDTLMISRTPEVTCVVVDVKHEDPEVKFNWYVDGVEVHNAKTKPREEQYNSTYRVVSVLTVLHQDWLNGKEYKCKVSNKALPAPIEKTISKAKGQPREPQVYTLPPSREQMTKNQVKLTCLVKGFYPSDIAVEWESNGQPENNYKTTPPVLDSDGSFFLYSKLTVDKSRWQQGNVFSCSVMHEALHNHYTQKSLSLSPGK
light: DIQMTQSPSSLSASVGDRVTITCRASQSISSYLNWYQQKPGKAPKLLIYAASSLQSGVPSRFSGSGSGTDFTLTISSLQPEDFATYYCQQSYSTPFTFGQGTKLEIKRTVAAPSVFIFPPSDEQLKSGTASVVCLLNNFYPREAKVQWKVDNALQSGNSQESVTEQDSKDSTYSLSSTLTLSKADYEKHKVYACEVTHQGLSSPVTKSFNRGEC
notes: copies: 1 + 1 + 2
Regarding B1, the binding result in test [1] was “binds”.

B2: XENP34732 (bispecific antibody)
heavy: EVQLLESGGGLVQPGGSLRLSCAASGFTFSNYYMAWVRQAPGKGLEWVSSISTGGGSTYYRDSVKGRFTISRDNSKSTLYLQMNSLRAEDTAVYYCTTDLSAIAATPFAYWGQGTLVTVSSASTKGPSVFPLAPSSKSTSGGTAALGCLVKDYFPEPVTVSWNSGALTSGVHTFPAVLQSSGLYSLSSVVTVPSSSLGTQTYICNVNHKPSDTKVDKKVEPKSCDKTHTCPPCPAPPVAGPSVFLFPPKPKDTLMISRTPEVTCVVVDVKHEDPEVKFNWYVDGVEVHNAKTKPREEEYNSTYRVVSVLTVLHQDWLNGKEYKCKVSNKALPAPIEKTISKAKGQPREPQVYTLPPSREEMTKNQVSLTCDVSGFYPSDIAVEWESDGQPENNYKTTPPVLDSDGSFFLYSKLTVDKSRWEQGDVFSCSVLHEALHSHYTQKSLSLSPGK
scFv-Fc: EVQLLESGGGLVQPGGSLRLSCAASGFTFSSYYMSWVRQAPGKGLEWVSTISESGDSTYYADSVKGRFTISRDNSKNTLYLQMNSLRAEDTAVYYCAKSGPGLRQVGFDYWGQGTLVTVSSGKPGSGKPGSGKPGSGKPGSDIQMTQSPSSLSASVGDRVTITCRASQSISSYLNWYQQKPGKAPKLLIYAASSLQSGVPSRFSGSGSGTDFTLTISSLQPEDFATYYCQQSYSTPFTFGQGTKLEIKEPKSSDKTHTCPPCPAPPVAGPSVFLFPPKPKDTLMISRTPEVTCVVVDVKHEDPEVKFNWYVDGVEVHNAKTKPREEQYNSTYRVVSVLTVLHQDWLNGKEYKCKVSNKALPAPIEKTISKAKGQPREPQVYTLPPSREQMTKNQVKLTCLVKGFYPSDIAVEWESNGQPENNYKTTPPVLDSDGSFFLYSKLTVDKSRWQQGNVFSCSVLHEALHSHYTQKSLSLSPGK
light: DIQMTQSPSSLSASVGDRVTITCRASQNIYTSLAWYQQKPGKAPKLLIYNAHSLQTGIPSRFSGSGSGADFTLTISSLQPEDFATYFCQQYYSGLTFGSGTKLEIKRTVAAPSVFIFPPSDEQLKSGTASVVCLLNNFYPREAKVQWKVDNALQSGNSQESVTEQDSKDSTYSLSSTLTLSKADYEKHKVYACEVTHQGLSSPVTKSFNRGEC
notes: 1+1 Fab-scFv-Fc; copies: 1 + 1 + 1
For B2, the binding result in test [2] is given as “binds”.

B3: XENP34389 (bispecific antibody)
heavy 1: B2 heavy with L431M, S437N
heavy 2: not shown
light: B2 light
notes: 2+1 Fab2-scFv-Fc; also called B7H3 x CD28 in 2+1 Fab2-scFv-Fc format; copies: 1 + 1 + 2
Take B3: the binding result with CD28-Fc-His protein was “binds”.

B4: XENP35153 (bispecific antibody)
heavy: EVQLLESGGGLVQPGGSLRLSCAVSGFSLSSYGVIWVRQAPGKGLEYVSWVSSGGSTNYASSVKGRFTISRDTSKNTVYLQMNSLRAEDTAVYFCARGATNSGTDIWGPGTLVTVSSASTKGPSVFPLAPSSKSTSGGTAALGCLVKDYFPEPVTVSWNSGALTSGVHTFPAVLQSSGLYSLSSVVTVPSSSLGTQTYICNVNHKPSDTKVDKKVEPKSCDKTHTCPPCPAPPVAGPSVFLFPPKPKDTLMISRTPEVTCVVVDVKHEDPEVKFNWYVDGVEVHNAKTKPREEEYNSTYRVVSVLTVLHQDWLNGKEYKCKVSNKALPAPIEKTISKAKGQPREPQVYTLPPSREEMTKNQVSLTCDVSGFYPSDIAVEWESDGQPENNYKTTPPVLDSDGSFFLYSKLTVDKSRWEQGDVFSCSVLHEALHSHYTQKSLSLSPGK
scFv-Fc: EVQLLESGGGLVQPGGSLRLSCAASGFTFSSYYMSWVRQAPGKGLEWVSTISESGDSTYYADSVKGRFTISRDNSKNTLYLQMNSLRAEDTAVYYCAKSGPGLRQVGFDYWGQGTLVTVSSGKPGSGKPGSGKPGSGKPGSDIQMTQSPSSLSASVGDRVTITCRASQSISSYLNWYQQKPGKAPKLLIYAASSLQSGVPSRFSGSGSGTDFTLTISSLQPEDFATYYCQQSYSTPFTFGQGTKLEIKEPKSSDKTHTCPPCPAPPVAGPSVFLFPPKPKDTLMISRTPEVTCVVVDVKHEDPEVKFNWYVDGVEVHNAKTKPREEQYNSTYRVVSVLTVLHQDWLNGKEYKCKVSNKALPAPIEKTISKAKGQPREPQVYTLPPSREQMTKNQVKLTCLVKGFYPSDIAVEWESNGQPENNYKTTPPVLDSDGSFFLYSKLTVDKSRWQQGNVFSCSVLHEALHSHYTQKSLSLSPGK
light: DIVMTQSPSSLSASVGDRVTITCRASQSINSWLSWYQQKPGKPPKLLIYGASNLASGVPSRFKGSGSGTDFTLTISSLQPEDFATYYCQNNYGIIAAGATFGGGTKVEIKRTVAAPSVFIFPPSDEQLKSGTASVVCLLNNFYPREAKVQWKVDNALQSGNSQESVTEQDSKDSTYSLSSTLTLSKADYEKHKVYACEVTHQGLSSPVTKSFNRGEC
notes: as for B2
On to B4, for which, in test [2], the binding result is given as “binds”.
